Data reported in article doi:10.1101/2022.07.12.499507 (bioRxiv, 2022).

B1: Eaf6 (natural protein)
chain: MTDELKSYEALKAELKKSLQDRREQEDTFDNLQQEIYDKETEYFSHNSNNNHSGHGGAHGSKSHYSGNIIKGFDTFSKSHHSHADSAFNNNDRIFSLSSATYVKQQHGQSQND
B2: Yaf9 (natural protein)
chain: MAPTISKRIKTLSVSRPIIYGNTAKKMGSVKPPNAPAEHTHLWTIFVRGPQNEDISYFIKKVVFKLHDTYPNPVRSIEAPPFELTETGWGEFDINIKVYFVEEANEKVLNFYHRLRLHPYANPVPNSDNGNEQNTTDHNSKDAEVSSVYFDEIVFNEPNEEFFKILMSRPGNLLPSNKTDDCVYSKQLEQEEIDRIEIGIEKVDKEIDELKQKLENLVKQEAINGS
B3: Eaf2 (natural protein)
chain: MSSSDIFDVLNIKQKSRSPTNGQVSVPSSSAANRPKPQVTGMQRELFNLLGENQPPVVIKSGNNFKEKMLSTSKPSPWSFVEFKANNSVTLRHWVKGSKELIGDTPKESPYSKFNQHLSIPSFTKEEYEAFMNENEGTQKSVESEKNHNENFTNEKKDESKNSWSFEEIEYLFNLCKKYDLRWFLIFDRYSYNNSRTLEDLKEKFYYTCRNYFKASDPSNPLLSSLNFSAEKEIERKKYLQRLLSRSAAEIAEEEALVVESKKFEMAAKRTLAERESLLRLLDSPHSDQTITQYLTSQGMSQLYNALLADKTRKRKHDLNIPENPWMKQQQQFAQHRQLQQLNVKKSEVKENLSPKKTKRQRQEMQTALKRKSESAYAEQLLKDFNSDERKALGVITHGEKLSPGVYLRSTKLSTFKPALQNKILAILQELSLPSRPVMPSFDVMERQEELLKKINTLIDLKKHVDKYEAGMSITK
B4: Epl1 (natural protein)
chain: MPTPSNAIEINDGSHKSGRSTRRSGSRSAHDDGLDSFSKGDSGAGASAGSSNSRFRHRKISVKQHLKIYLPNDLKHLDKDELQQREVVEIETGVEKNEEKEVHLHRILQMGSGHTKHKDYIPTPDASMTWNEYDKFYTGSFQETTSYIKFSATVEDCCGTNYNMDERDETFLNEQVNKGSSDILTEDEFEILCSSFEHAIHERQPFLSMDPESILSFEELKPTLIKSDMADFNLRNQLNHEINSHKTHFITQFDPVSQMNTRPLIQLIEKFGSKIYDYWRERKIEVNGYEIFPQLKFERPGEKEEIDPYVCFRRREVRHPRKTRRIDILNSQRLRALHQELKNAKDLALLVAKRENVSLNWINDELKIFDQRVKIKNLKRSLNISGEDDDLINHKRKRPTIVTVEQREAELRKAELKRAAAAAAAAKAKNNKRNNQLEDKSSRLTKQQQQQLLQQQQQQQQNALKTENGKQLANASSSSTSQPITSHVYVKLPSSKIPDIVLEDVDALLNSKEKNARKFVQEKMEKRKIEDADVFFNLTDDPFNPVFDMSLPKNFSTSNVPFASIASSKFQIDRSFYSSHLPEYLKGISDDIRIYDSNGRSRNKDNYNLDTKRIKKTELYDPFQENLEIHSREYPIKFRKRVGRSNIKYVDRMPNFTTSSTKSACSLMDFVDFDSIEKEQYSREGSNDTDSINVYDSKYDEFVRLYDKWKYDSPQNEYGIKFSDEPARLNQISNDTQVIRFGTMLGTKSYEQLREATIKYRRDYITRLKQKHIQHLQQQQQQQQQQQQQAQQQKQKSQNNNSNSSNSLKKLNDSLINSEAKQNSSITQKNSS
B5: Eaf3 (natural protein)
chain: MVDLEQEFALGGRCLAFHGPLMYEAKILKIWDPSSKMYTSIPNDKPGGSSQATKEIKPQKLGEDESIPEEIINGKCFFIHYQGWKSSWDEWVGYDRIRAYNEENIAMKKRLANEAKEAKKSLLEQQKKKKLSTSLGGPSNGGKRKGDSRSNASISKSTSQSFLTSSVSGRKSGRSSANSLHPGSSLRSSSDQNGNDDRRRSSSLSPNMLHHIAGYPTPKISLQIPIKLKSVLVDDWEYVTKDKKICRLPADVTVEMVLNKYEHEVSQELESPGSQSQLSEYCAGLKLYFDKCLGNMLLYRLERLQYDELLKKSSKDQKPLVPIRIYGAIHLLRLISVLPELISSTTMDLQSCQLLIKQTEDFLVWLLMHVDEYFNDKDPNRSDDALYVNTSSQYEGVALGM

Legend:
Epl1 [1] = target: B4; test: cryo-EM structure
Yng2 = target: T1, Yng2 (Saccharomyces cerevisiae, UniProt P38806 1-282); test: cryo-EM structure
T1 sequence: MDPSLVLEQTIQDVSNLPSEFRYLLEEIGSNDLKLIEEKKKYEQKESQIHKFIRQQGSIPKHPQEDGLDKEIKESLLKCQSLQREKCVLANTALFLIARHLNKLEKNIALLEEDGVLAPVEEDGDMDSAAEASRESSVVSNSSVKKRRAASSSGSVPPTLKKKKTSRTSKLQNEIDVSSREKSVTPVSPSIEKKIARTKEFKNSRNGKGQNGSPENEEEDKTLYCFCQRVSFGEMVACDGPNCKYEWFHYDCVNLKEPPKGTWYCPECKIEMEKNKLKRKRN

Eaf2 = target: B3; test: cross-linking
Eaf1 = target: T2, Eaf1 (Saccharomyces cerevisiae, UniProt Q06337 1-982); test: cryo-EM structure
T2 sequence: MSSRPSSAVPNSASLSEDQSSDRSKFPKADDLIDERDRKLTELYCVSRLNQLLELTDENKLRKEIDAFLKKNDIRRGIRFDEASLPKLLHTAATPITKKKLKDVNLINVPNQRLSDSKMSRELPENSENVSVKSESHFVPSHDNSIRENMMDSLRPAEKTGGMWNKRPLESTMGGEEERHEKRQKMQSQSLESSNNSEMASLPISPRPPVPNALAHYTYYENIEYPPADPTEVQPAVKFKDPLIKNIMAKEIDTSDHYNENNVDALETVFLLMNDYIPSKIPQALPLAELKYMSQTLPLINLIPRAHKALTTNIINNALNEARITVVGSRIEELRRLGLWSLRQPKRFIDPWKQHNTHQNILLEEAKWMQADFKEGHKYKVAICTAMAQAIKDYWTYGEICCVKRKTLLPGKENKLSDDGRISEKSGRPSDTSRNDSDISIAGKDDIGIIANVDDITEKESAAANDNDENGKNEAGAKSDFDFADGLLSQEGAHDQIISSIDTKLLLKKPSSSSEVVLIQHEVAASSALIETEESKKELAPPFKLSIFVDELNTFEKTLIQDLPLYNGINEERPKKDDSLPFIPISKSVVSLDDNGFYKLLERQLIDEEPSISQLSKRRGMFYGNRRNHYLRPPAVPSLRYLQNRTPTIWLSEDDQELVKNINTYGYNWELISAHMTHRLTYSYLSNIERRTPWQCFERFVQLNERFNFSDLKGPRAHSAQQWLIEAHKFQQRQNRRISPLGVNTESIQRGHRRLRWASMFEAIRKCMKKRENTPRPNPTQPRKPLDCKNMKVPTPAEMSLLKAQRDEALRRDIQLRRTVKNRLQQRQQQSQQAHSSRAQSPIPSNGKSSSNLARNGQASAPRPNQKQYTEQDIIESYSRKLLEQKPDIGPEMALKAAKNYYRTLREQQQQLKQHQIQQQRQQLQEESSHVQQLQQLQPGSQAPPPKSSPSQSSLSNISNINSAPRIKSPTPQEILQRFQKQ

Epl1 [2] = target: B4; test: cross-linking

B1: binds (Epl1 [1]); binds (Yng2).

B2: binds (Eaf2).

B3: binds (Eaf1).

B4: binds (Eaf1).

B5: binds (Epl1 [2]).
